Legend:
[1] = target: cynomolgus monkey CD300LB transiently expressed on HEK293 cells (cynomolgus monkey); assay: flow cytometry, transfected HEK293, 10 ug/mL, isotype subtracted
[2] = target: murine CD300LB-Fc (mouse); assay: SPR (Carterra LSA), antibody immobilised, Fc fusion at 300 or 600 nM
[3] = target: CD300A/C/D/E/G (pool of five stable Freestyle HEK cell lines expressing huCD300A, huCD300C, huCD300D, huCD300E and huCD300G); assay: flow cytometry, pooled stable Freestyle HEK cells
murine CD300C-Fc (mouse) = assay: SPR (Carterra LSA), antibody immobilised, Fc fusion at 300 or 600 nM
[4] = target: huCD300F constitutively expressed on 293 Freestyle (Freestyle HEK) cells (human) (UniProt Q8TDQ1); assay: flow cytometry, stable Freestyle HEK cells
[5] = target: recombinant human CD300LB overexpressed on Jurkat cells (human) (UniProt A8K4G0); assay: flow cytometry, stable Jurkat cells, supernatant or 10 ug/mL, isotype subtracted
Chain of recombinant human CD300LB overexpressed on Jurkat cells (human) (A8K4G0 18-201 limits assumed): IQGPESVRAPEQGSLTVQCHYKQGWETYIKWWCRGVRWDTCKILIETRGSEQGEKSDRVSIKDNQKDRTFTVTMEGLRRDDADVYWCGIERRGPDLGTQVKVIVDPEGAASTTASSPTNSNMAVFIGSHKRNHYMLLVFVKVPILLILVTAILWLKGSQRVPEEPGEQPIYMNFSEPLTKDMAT

Chain of cynomolgus monkey CD300LB transiently expressed on HEK293 cells (cynomolgus monkey) (chain, as listed by the source limits assumed, form in doubt): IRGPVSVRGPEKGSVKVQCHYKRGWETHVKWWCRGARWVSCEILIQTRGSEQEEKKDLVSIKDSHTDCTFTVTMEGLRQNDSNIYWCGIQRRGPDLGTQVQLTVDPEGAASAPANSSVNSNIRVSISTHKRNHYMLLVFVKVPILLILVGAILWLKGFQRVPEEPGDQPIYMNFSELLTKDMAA
Chain of murine CD300C-Fc (mouse) (chain, as listed by the source limits assumed): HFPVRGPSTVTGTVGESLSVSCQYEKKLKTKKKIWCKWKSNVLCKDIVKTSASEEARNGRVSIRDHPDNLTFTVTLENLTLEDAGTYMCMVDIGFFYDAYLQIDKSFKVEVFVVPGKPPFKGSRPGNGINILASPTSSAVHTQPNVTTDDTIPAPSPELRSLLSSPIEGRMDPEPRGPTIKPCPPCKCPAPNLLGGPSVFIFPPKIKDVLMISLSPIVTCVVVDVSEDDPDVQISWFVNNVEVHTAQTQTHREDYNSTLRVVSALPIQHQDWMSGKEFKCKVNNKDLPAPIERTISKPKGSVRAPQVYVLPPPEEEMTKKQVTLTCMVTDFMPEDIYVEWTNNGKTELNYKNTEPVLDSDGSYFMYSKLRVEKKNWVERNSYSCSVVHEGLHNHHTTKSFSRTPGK
Chain of murine CD300LB-Fc (mouse) (chain, as listed by the source limits assumed): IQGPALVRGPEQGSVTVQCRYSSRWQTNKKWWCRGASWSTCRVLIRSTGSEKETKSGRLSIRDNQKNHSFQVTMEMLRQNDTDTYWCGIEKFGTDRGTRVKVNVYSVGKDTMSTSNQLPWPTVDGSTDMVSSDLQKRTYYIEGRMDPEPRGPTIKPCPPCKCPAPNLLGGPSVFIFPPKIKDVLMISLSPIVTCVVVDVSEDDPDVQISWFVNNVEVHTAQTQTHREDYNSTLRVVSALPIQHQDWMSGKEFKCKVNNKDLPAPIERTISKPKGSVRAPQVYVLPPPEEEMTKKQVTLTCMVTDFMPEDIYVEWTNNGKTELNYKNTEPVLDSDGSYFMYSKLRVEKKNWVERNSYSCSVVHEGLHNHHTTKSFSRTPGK
Chain of huCD300F constitutively expressed on 293 Freestyle (Freestyle HEK) cells (human) (Q8TDQ1 other isoform, or with tags, fused parts or gaps): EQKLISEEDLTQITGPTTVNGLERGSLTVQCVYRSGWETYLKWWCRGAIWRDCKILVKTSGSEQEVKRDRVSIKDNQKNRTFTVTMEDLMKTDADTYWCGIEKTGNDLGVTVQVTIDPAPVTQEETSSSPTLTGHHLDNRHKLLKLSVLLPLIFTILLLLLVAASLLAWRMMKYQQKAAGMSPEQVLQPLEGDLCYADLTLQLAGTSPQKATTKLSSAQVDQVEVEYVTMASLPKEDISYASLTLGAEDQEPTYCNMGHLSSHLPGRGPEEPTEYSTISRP

| Binder | gMFI [1] [gMFI] | gMFI [3] [gMFI] | other results |
| --- | --- | --- | --- |
| anti-CD300LB antibody CD-05 (antibody, V domains shown) VH: QVQLVQSGAEVKKPGASVKVSCKASGYTFSRYYINWVRQAPGQGLEWMGWINPNSGGTNYAQKFQGRVTMTRDTSTSTVYMELSSLRSEDTAVYYCTTDQLRFGKTGPYYGMDVWGQGTTVTVSS VL: DIQMTQSPSSLSASVGDRVTITCRASQNIGTYLNWYQQKPGKAPKLLIYAASSLQSGVPSRFSGSGSGTDFTLTISSLQPEDFATYYCQQSYSDTLTFGGGTKVEIK | -62.5 | 2510 | SPR binding (control subtracted) [2]: 3.65 |
| anti-CD300LB antibody CD-09 (antibody, V domains shown) VH: QVQLVQSGAEVKKPGASVKVSCKASGYTFTTYAVHWVRQAPGQGLEWMGIINPNSGGTNYAQKFQGRVTMTRDTSTSTVYMELSSLRSEDTAVYYCARDIVPMNNFYNYYYGMDVWGQGTTVTVSS VL: DIQMTQSPSSLSASVGDRVTITCRASQSISSYLNWYQQKPGKAPKLLIYATSTLQSGVPSRFSGSGSGTDFTLTISSLQPEDFATYYCQQSYRIPYTFGQGTKVEIK | -19.5 | -25.5 |  |
| anti-CD300LB antibody CD-07 (antibody, V domains shown) VH: QVQLVQSGAEVKKPGASVKVSCKASGYTFTNYRMHWVRQAPGQGLEWMGWINPNSGGTIYAQKFQGRVTMTRDTSTSTVYMELSSLRSEDTAVYYCARDLDYWGQGTLVTVSS VL: DIQMTQSPSSLSASVGDRVTITCQASQDISNYLNWYQQKPGKAPKLLIYGASSLQSGVPSRFSGSGSGTDFTLTISSLQPEDFATYYCQQSYSTPWTFGPGTKVEIK | 39 | 42.5 |  |
| anti-CD300LB antibody CD-06 (antibody, V domains shown) VH: QVQLVQSGAEVKKPGASVKVSCKASGYTFTTYAVHWVRQAPGQGLEWMGIVNPNSGGTNYAQKFQGRVTMTRDTSTSTVYMELSSLRSEDTAVYYCARDIVPMNNFYNYYYGMDVWGQGTTVTVSS VL: DIQMTQSPSSLSASVGDRVTITCRASQSISSYLNWYQQKPGKAPKLLIYATSTLQSGVPSRFSGSGSGTDFTLTISSLQPEDFATYYCQQSYRIPYTFGQGTKVEIK | -51 | 779 |  |
| anti-CD300LB antibody CD-11 (antibody, V domains shown) VH: QIQLVQSGPEVKKPGETVKISCKASGYTLTDYSMHWVMQTPGTGLKWMAWMNTETGEPTYADDFKGRFAFSLETSAGTAYLQIDNLKNEDTATYFCATYGKSYGMKYWGQGTSVTVSS VL: DIVLTQSPPSLAVSLGQRATISCRATKSVSPYLHWYQQTPGQPPKLLIYLASNLDSGVPARFSGSGSGTDFTLNIHPVEEEDAATYYCQHNKELPPTFGGGTRLEIK |  |  | SPR binding (control subtracted) (murine CD300C-Fc (mouse)): 37.8 |
| anti-CD300LB antibody CD-01 (antibody, V domains shown) VH: RVQLQQSGAELVRPGASVTLSCKASGFTFTDFEMHWVKKTPVHGLEWIGAIDPESGNTAYNQKFRGKATLTADKSSSTAYMELRYLTSEDSAVYYCTPLISGADYWGQGTTLTVSS VL: DVVMTQSPLSLPVSLGDQASISCRSSQSLVHSDGNTYLYWYLQKPGQSPKLLIYKVSNRFSGVPDRFSGSGSGTDFTFKISRVGAEDLGVYFCSQSTHVPWTFGGGTKLEII | 190 | -21.5 |  |
| anti-CD300LB antibody CD-04 (antibody, V domains shown) VH: QVQLQQSGAELVRPGASVTLSCRASGYTFTDFEMHWVKQTPLHGLEWIGAIAPETGGTAYNQKFKGKAILTADKSSSTAYVELRSLTSEDSAVYFCTRLGGMDYWGQGTSVTVSS VL: DVVMTQTPLSLPVSLGDQASISCRSSQTLVHNNGNTYLYWYLQKPGQSPKLLIYQVSNRFFGVPDRFSGSGSGTDFTLKISRVEAEDLGLYFCSQSTHVPWTFGGGTKLEIK | 72.2 | 52.5 | gMFI [4]: 163 gMFI |
| anti-CD300LB antibody CD-08 (antibody, V domains shown) VH: EVQLLESGGGLVQPGGSLRLSCAASGFTFSNAWMSWVRQAPGKGLEWVSVISGSGGRTYYADSVKGRFTISRDNSKNTLYLQMNSLRAEDTAVYYCARDGTTVAPKGMDVWGQGTTVTVSS VL: DIQMTQSPSSLSASVGDRVTITCQASQDINNYVNWYQQKPGKAPKLLIYAASNLQSGVPSRFSGSGSGTDFTLTISSLQPEDFATYYCQQSYSPPYTFGQGTKLEIK | -43.5 | 166 |  |
| anti-CD300LB antibody CD-10 (antibody, V domains shown) VH: QVQLQQSGPELVRPGVSVKISCKGSGYTFTDYAMHWVKQSHVRSREWIGVIGTYNGHTNYNQKFKGKATMTVDKSSSTAYLELARLTSEDSAIYYCARSGSYYYSMDYWGQGTSVTVSS VL: QIVLTQSPAIMSASPGEKVTMTCSASSSVNYMHWYQQKSGTSPKRWIYDTSKLSSGVPARFSGSGSGTSYSLTISTMEAEDAATYYCQQWSSNPPMTFGGGTKLEIK |  |  | SPR binding (control subtracted) (murine CD300C-Fc (mouse)): 11.8 |
| anti-CD300LB antibody CD-15 (antibody, V domains shown) VH: QIQLVQSGPELKKPGETVKISCQVSGYTFTDYSMHWLKQAPGKGLKWMAWINTETGESTYTDEFKGRFVFSLETSVRTAYLKINNLKNEDTATYFCGTYGSSYGMAYWGQGTSVTVSS VL: DIVLTQSPASLPVSLGQRATISCRASKSVSTSGSSYLHWYQQKPGQPPKLLIYLASKLESGVPARFRGSGSGTDFTLNIHPVEEEDAATYYCQHNREVPPTFGGGTKLEIK |  |  | gMFI [5]: 22 gMFI |
| anti-CD300LB antibody CD-16 (antibody, V domains shown) VH: QIQLVQSGPELKKPGETVKISCKASGYTFTDYSMHWVKQAPGKGLKWMAWINTETGEPTYADDFRGRFAFSLETSGRTAYLEINNLRNEDTATYFCVTYGSSYGMAYWGQGTSVTVSS VL: DIVLTQSPASLAVSLGQRATISCRASKSVSRSGYSYLHWYQQKPGQPPKLLIYLASKLESGVPARFSGSGSGTDFTLNIHPVEAEDAATYYCQHNREIPPTFGGGTKLEIK |  |  | gMFI [5]: 31 gMFI |

Source: US20240254227A1
